In general, Kd refers to the concentration at which binding is half-saturated. Low readings indicate a tighter complex, high ones a looser complex. As a reminder, the IC50 is the concentration needed to halve the response being measured. A high value points to a need for much substance.

The values that follow come from the Immune Epitope Database (IEDB).

A value given as a limit tells only on which side of the number the result lay.

One assay addresses HLA-C*15:02. Kind of assay: IEDB peptide-MHC binding, purified MHC/direct/fluorescence; filed as Kd, often an IC50 or EC50 that approximates it; ≥ and ≤ were set here for values at or beyond the usual limits of such assays.
Another assay concerns the target HLA-C*07:02. The description is as above. The note with it: source organism: Bacillus anthracis str. A2012.
In another assay the target is HLA-C*05:01. Described as above. Conditions: source organism: Bacillus anthracis str. A2012.
In another assay the target is HLA-B*83:01. Kind of assay: IEDB peptide-MHC binding, purified MHC/competitive/fluorescence; filed as Kd, often an IC50 or EC50 that approximates it; ≥ and ≤ were set here for values at or beyond the usual limits of such assays.
Another assay addresses HLA-C*14:02. The assay is described as above.
The target in a further assay is HLA-B*15:42. Described as above.
The target in another assay is HLA-B*27:20. The description is as above. The note with it: source organism: Bacillus anthracis str. A2012.
A further assay has as its target HLA-B*45:06. The description is as above.
In another assay the target is HLA-B*15:02. The description is as above. Conditions: source organism: Bacillus anthracis str. A2012.
In the next assay the target is HLA-A*23:01. Kind of assay: IEDB peptide-MHC binding, purified MHC/direct/fluorescence; filed as Kd, often an IC50 or EC50 that approximates it; ≥ and ≤ were set here for values at or beyond the usual limits of such assays. The note with it: source organism: Francisella tularensis subsp. tularensis FSC033.
The next assay addresses HLA-B*07:02. Described as above. The note with it: source organism: Francisella tularensis subsp. tularensis FSC033.
The target of the next assay is HLA-B*18:01. Described as above. Conditions: source organism: Francisella tularensis subsp. tularensis FSC033.
In a further assay the target is HLA-B*58:01. The description is as above.
A further assay deals with HLA-B*51:01. The assay is described as above. Conditions: source organism: Francisella tularensis subsp. tularensis FSC033.
Another assay addresses HLA-A*02:19. The description is as above. Conditions: source organism: Francisella tularensis subsp. tularensis FSC033.
Another assay deals with HLA-A*30:01. Described as above. Conditions: source organism: Francisella tularensis subsp. tularensis FSC033.
The target of a further assay is HLA-B*40:01. The assay is described as above. Conditions: source organism: Francisella tularensis subsp. tularensis FSC033.
Assay [1] addresses HLA-A*29:02. The description is as above. The note with it: source organism: Francisella tularensis subsp. tularensis FSC033.
For another assay, the target named is HLA-B*57:01. Described as above.
The next assay concerns the target HLA-A*02:50. Described as above. Conditions: source organism: Francisella tularensis subsp. tularensis FSC033.
The next assay addresses HLA-A*24:03. The assay is described as above. The note with it: source organism: Francisella tularensis subsp. tularensis FSC033.
Another assay has as its target HLA-B*44:02. The description is as above. The note with it: source organism: Francisella tularensis subsp. tularensis FSC033.
The target in the next assay is HLA-A*26:01. Kind of assay: IEDB peptide-MHC binding, purified MHC/competitive/fluorescence; filed as Kd, often an IC50 or EC50 that approximates it; ≥ and ≤ were set here for values at or beyond the usual limits of such assays. The note with it: source organism: Francisella tularensis subsp. tularensis FSC198.
The target of a further assay is HLA-A*80:01. Kind of assay: IEDB peptide-MHC binding, purified MHC/direct/fluorescence; filed as Kd, often an IC50 or EC50 that approximates it; ≥ and ≤ were set here for values at or beyond the usual limits of such assays. The note with it: source organism: Mus musculus.
In assay [2] the target is HLA-A*29:02. Kind of assay: IEDB peptide-MHC binding, purified MHC/competitive/fluorescence; filed as Kd, often an IC50 or EC50 that approximates it; ≥ and ≤ were set here for values at or beyond the usual limits of such assays. Conditions: source organism: Homo sapiens.
The target of a further assay is HLA-C*06:02. The assay is described as above. Conditions: source organism: Homo sapiens.
The target of a further assay is HLA-A*01:01. The description is as above. The note with it: source organism: Homo sapiens.
The target of the next assay is HLA-A*02:01. Kind of assay: IEDB peptide-MHC binding, cellular MHC/competitive/fluorescence; ≥ and ≤ were set here for values at or beyond the usual limits of such assays. The note with it: source organism: Homo sapiens.
The target in a further assay is HLA-B*15:17. Kind of assay: IEDB peptide-MHC binding, purified MHC/direct/fluorescence; filed as Kd, often an IC50 or EC50 that approximates it; ≥ and ≤ were set here for values at or beyond the usual limits of such assays. Conditions: source organism: Influenza A virus (A/finch/Canada/NS1301/2001(H3N8)).
A further assay addresses HLA-A*68:23. Kind of assay: IEDB peptide-MHC binding, purified MHC/competitive/fluorescence; filed as Kd, often an IC50 or EC50 that approximates it; ≥ and ≤ were set here for values at or beyond the usual limits of such assays. Conditions: source organism: Influenza A virus (A/Fort Monmouth/1/1947-mouse adapted(H1N1)).
A further assay deals with HLA-A*32:07. The description is as above. Conditions: source organism: Influenza A virus (A/Fort Monmouth/1/1947-mouse adapted(H1N1)).
In the next assay the target is HLA-A*32:15. The assay is described as above. The note with it: source organism: Influenza A virus (A/Fort Monmouth/1/1947-mouse adapted(H1N1)).
Another assay addresses HLA-B*35:01. Kind of assay: IEDB peptide-MHC binding, cellular MHC/competitive/fluorescence; ≥ and ≤ were set here for values at or beyond the usual limits of such assays. Conditions: source organism: Mycobacterium tuberculosis H37Rv.
Another assay addresses HLA-B*27:05. Kind of assay: IEDB peptide-MHC binding, purified MHC/competitive/fluorescence; ≥ and ≤ were set here for values at or beyond the usual limits of such assays. Conditions: source organism: hepatitis C virus genotype 1a.
Where [3] appears, read: source organism: Bacillus anthracis str. A2012.
[4] abbreviates: source organism: Francisella tularensis subsp. tularensis FSC033.
[5] abbreviates: source organism: Influenza A virus (A/Fort Monmouth/1/1947-mouse adapted(H1N1)).
Setting [6] is: source organism: Influenza A virus (A/finch/Canada/NS1301/2001(H3N8)).

As to WMYYPRSPV, the Kd in the assay with HLA-C*15:02 (setting [3]) is ≥ 20000 nM; in the assay with HLA-C*07:02 it was 667 nM; with HLA-C*05:01, ≥ 20000 nM; in the assay with HLA-B*83:01 (setting [3]), ≥ 5000 nM; with HLA-C*14:02 (setting [3]), 6.8 nM; with HLA-B*15:42 (setting [3]) it was ≥ 5000 nM. In addition, the Kd with HLA-B*27:20 was 0.2 nM; in the assay with HLA-B*45:06 (setting [3]), ≥ 5000 nM; in the assay with HLA-B*15:02, 391 nM.
For NTIEELSGY, the Kd in the assay with HLA-A*23:01, in the assay with HLA-B*07:02, with HLA-B*18:01, with HLA-B*58:01 (setting [4]), with HLA-B*51:01 and in the assay with HLA-A*02:19 was ≥ 20000 nM each time. The Kd in the assay with HLA-A*30:01 was ≥ 20000 nM; in the assay with HLA-B*40:01, ≥ 20000 nM; with HLA-A*29:02 [1] it was 28 nM; with HLA-B*57:01 (setting [4]), ≥ 20000 nM; in the assay with HLA-A*02:50, ≥ 20000 nM; with HLA-A*24:03 it was ≥ 20000 nM. The Kd is ≥ 20000 nM in the assay with HLA-B*44:02 and 0.6 nM with HLA-A*26:01.
TFMDHVLRY: the Kd is 109 nM with HLA-A*80:01; ≥ 5000 nM with HLA-B*83:01 (source organism: Homo sapiens); 0.4 nM in the assay with HLA-C*14:02 (source organism: Homo sapiens); ≤ 0.1 nM with HLA-A*29:02 [2]; ≥ 5000 nM with HLA-B*15:42 (source organism: Homo sapiens); 663 nM with HLA-C*06:02. Further, the Kd was ≥ 5000 nM with HLA-B*45:06 (source organism: Homo sapiens) and 1400 nM with HLA-A*01:01.
On to LLLDVPTAAVQA, for which, in the assay with HLA-A*02:01, the IC50 worked out at 1890 nM. That is a single-digit micromolar value.
With GTFEFTSFF, the Kd amounted to 3660 nM in the assay with HLA-C*15:02 (setting [5]); 5.9 nM in the assay with HLA-B*15:17; 496 nM with HLA-B*58:01 (setting [6]); 360 nM in the assay with HLA-B*57:01 (setting [6]); 5.7 nM with HLA-A*68:23; 23.8 nM with HLA-A*32:07. The Kd was ≥ 5000 nM with HLA-B*83:01 (setting [5]), ≥ 5000 nM with HLA-B*15:42 (setting [5]), ≥ 5000 nM with HLA-B*45:06 (setting [5]) and 893 nM in the assay with HLA-A*32:15.
The sequence LPAKFLEGF displayed an IC50 in the assay with HLA-B*35:01 of 700 nM.
The sequence GRAVICGKY displayed an IC50 in the assay with HLA-B*27:05 of 32 nM.
